Paper PMC12775996 (2025)

How the values were obtained:
[1] = target: T1, adenovirus type 11 vector particles (human adenovirus type 11); assay: SPR; hydrophobic (slow) component of one-to-two model
[2] = target: T2, adenovirus type 13 vector particles (human adenovirus type 13); assay: as above
[3] = target: T1, adenovirus type 11 vector particles; assay: SPR; electrostatic (fast) component of one-to-two model
[4] = target: T2, adenovirus type 13 vector particles; assay: as above
[5] = target: T3, adenovirus type 5 vector particles (wild-type capsid) (human adenovirus type 5); assay: SPR; hydrophobic (slow) component of one-to-two model
[6] = target: T3, adenovirus type 5 vector particles …; assay: as above; remark: listed apart in the source
[7] = target: T3, adenovirus type 5 vector particles …; assay: SPR; electrostatic (fast) component of one-to-two model

Row | Binder | Kd [1] | koff [1] | Kd [2] | koff [2] | Kd [3] | koff [3] | Kd [4] | koff [4] | koff [5] | Kd [6] | koff [7]
1 | human platelet factor 4 (natural protein) EAEEDGDLQCLCVKTTSQVRPRHITSLEVIKAGPHCPTAQLIATLKNGRKICLDLQAPLYKKIIKKLLES | 13.4 nM | 0.000482 s⁻¹ | 12.9 nM | 0.000363 s⁻¹ | 742 nM | 0.00879 s⁻¹ | 774 nM | 0.00761 s⁻¹ | – | – | –
2 | human platelet factor 4 (natural protein, wild-type capsid; copies by convention for the Ad5 virion; hexon is the PF4-binding protein; internal proteins IIIa, VI and VIII left out; Y477 is the fiber residue of the paper (AAQ19310.1)) EAEEDGDLQCLCVKTTSQVRPRHITSLEVIKAGPHCPTAQLIATLKNGRKICLDLQAPLYKKIIKKLLES | – | – | – | – | – | – | – | – | 0.00083 s⁻¹ | 24.4 nM | 0.0124 s⁻¹
